Measured values published in patent US9802997B2, “Peptides and combination of peptides for use in immunotherapy against various tumors” (immatics biotechnologies GmbH, priority 2015, dated 2017).

Target: HLA-A*02:01 (Homo sapiens, UniProt P04439, D140Y/D185E/D98H/E176V/E277Q/G131W/G231S/I119V/I121R/I166T/I218V/L300P/L318F/N151K/N90K/P208A/P217A/Q86G/Q94H/R138H/R169H/T345S)
Assay: MHC binding assay (UV-ligand exchange, beta2m ELISA)
Conditions: binding to HLA-A*02:01, β2m ELISA
Text: Candidate peptides for T cell based therapies according to the present invention were further tested for their MHC binding capacity (affinity). The individual peptide-MHC complexes were produced by UV-ligand exchange, where a UV-sensitive peptide is cleaved upon UV-irradiation, and exchanged with the peptide of interest as analyzed. Only peptide candidates that can effectively bind and stabilize the peptide-receptive MHC molecules prevent dissociation of the MHC complexes. To determine the yield of the exchange reaction, an ELISA was performed based on the detection of the light chain (β2m) of stabilized MHC complexes. The assay was performed as generally described in Rodenko et al. (Rodenko et al., 2006).
96 well MAXISorp plates (NUNC) were coated over night with 2 ug/ml streptavidin in PBS at room temperature, washed 4× and blocked for 1 h at 37° C. in 2% BSA containing blocking buffer. Refolded HLA-A*02:01/MLA-001 monomers served as standards, covering the range of 15-500 ng/ml. Peptide-MHC monomers of the UV-exchange reaction were diluted 100 fold in blocking buffer. Samples were incubated for 1 h at 37° C., washed four times, incubated with 2 ug/ml HRP conjugated anti-β2m for 1 h at 37° C., washed again and detected with TMB solution that is stopped with […]. Absorption was measured at 450 nm. Candidate peptides that show a high exchange yield (preferably higher than 50%, most preferred higher than 75%) are generally preferred for a generation and production of antibodies or fragments thereof, and/or T cell receptors or fragments thereof, as they show sufficient avidity to the MHC molecules and prevent dissociation of the MHC complexes.

| Substance | Peptide exchange (MHC class I binding score, peptide exchange yield) |
| --- | --- |
| 82 (ILAEEPIYIRV; listed as Homo sapiens) [compound 82] | +++ (≧50 = +++) |
| 25 (LLWGHPRVALA; listed as Homo sapiens) [compound 25] | +++ (≧50 = +++) |
| 90 (AILNVDEKNQV; listed as Homo sapiens) [compound 90] | ++ (≧20% = ++) |
| 100 (ALQSFEFRV; listed as Homo sapiens) [compound 100] | +++ (≧50 = +++) |
| 52 (TIGIPFPNV; listed as Homo sapiens) [compound 52] | ++ (≧20% = ++) |
| 124 (ALLLRLFTI; listed as Homo sapiens) [compound 124] | ++ (≧20% = ++) |
| 71 (HMSGKLTNV; listed as Homo sapiens) [compound 71] | ++ (≧20% = ++) |
| 31 (GLLETTGLLAT; listed as Homo sapiens) [compound 31] | +++ (≧50 = +++) |
| 128 (SILTNISEV; listed as Homo sapiens) [compound 128] | ++ (≧20% = ++) |
| 93 (RLYGYFHDA; listed as Homo sapiens) [compound 93] | ++ (≧20% = ++) |
| 114 (LLFPSDVQTL; listed as Homo sapiens) [compound 114] | ++ (≧20% = ++) |
| 103 (YLADTVQKL; listed as Homo sapiens) [compound 103] | ++ (≧20% = ++) |
| 85 (KLLDKPEQFL; listed as Homo sapiens) [compound 85] | ++ (≧20% = ++) |
| 113 (FLFLKEVKV; listed as Homo sapiens) [compound 113] | ++ (≧20% = ++) |
| 60 (YLFSQGLQGL; listed as Homo sapiens) [compound 60] | +++ (≧50 = +++) |
| 126 (QLREAFEQL; listed as Homo sapiens) [compound 126] | +++ (≧50 = +++) |
| 49 (KLIGNIHGNEV; listed as Homo sapiens) [compound 49] | ++ (≧20% = ++) |
| 47 (GLNGFNVLL; listed as Homo sapiens) [compound 47] | +++ (≧50 = +++) |
| 11 (LLDPKTIFL; listed as Homo sapiens) [compound 11] | +++ (≧50 = +++) |
| 83 (GLLENSPHL; listed as Homo sapiens) [compound 83] | ++ (≧20% = ++) |
| 76 (FTAEFLEKV; listed as Homo sapiens) [compound 76] | +++ (≧50 = +++) |
| 125 (AALEVLAEV; listed as Homo sapiens) [compound 125] | +++ (≧50 = +++) |
| 106 (VLLGSVVIFA; listed as Homo sapiens) [compound 106] | ++ (≧20% = ++) |
| 130 (QLYGSAITL; listed as Homo sapiens) [compound 130] | +++ (≧50 = +++) |
| 84 (FLLEREQLL; listed as Homo sapiens) [compound 84] | ++++ (≧75% = ++++) |
| 68 (QLMNLIRSV; listed as Homo sapiens) [compound 68] | +++ (≧50 = +++) |
| 21 (YLMDDFSSL; listed as Homo sapiens) [compound 21] | +++ (≧50 = +++) |
| 94 (YLDEVAFML; listed as Homo sapiens) [compound 94] | +++ (≧50 = +++) |
| 92 (RLFEEVLGV; listed as Homo sapiens) [compound 92] | ++++ (≧75% = ++++) |

Further lines, results first:

| Peptide exchange (MHC class I binding score, peptide exchange yield) | Substance |
| --- | --- |
| ++ (≧20% = ++) | 171 (LLLLDVPTA; listed as Homo sapiens) [compound 171] |
| ++++ (≧75% = ++++) | 234 (VLLNEILEQV; listed as Homo sapiens) [compound 234] |
| +++ (≧50 = +++) | 147 (GLLSALENV; listed as Homo sapiens) [compound 147] |
| ++ (≧20% = ++) | 151 (DISKRIQSL; listed as Homo sapiens) [compound 151] |
| ++ (≧20% = ++) | 146 (VVAAHLAGA; listed as Homo sapiens) [compound 146] |
| +++ (≧50 = +++) | 239 (VIIKGLEEITV; listed as Homo sapiens) [compound 239] |
| ++ (≧20% = ++) | 154 (AIIKEIQTV; listed as Homo sapiens) [compound 154] |
| ++ (≧20% = ++) | 284 (KLMDPGSLPPL; listed as Homo sapiens) [compound 284] |
| +++ (≧50 = +++) | 158 (YLDPLWHQL; listed as Homo sapiens) [compound 158] |
| +++ (≧50 = +++) | 220 (ALSELERVL; listed as Homo sapiens) [compound 220] |
| +++ (≧50 = +++) | 153 (KLVELEHTL; listed as Homo sapiens) [compound 153] |
| +++ (≧50 = +++) | 280 (HLWGHALFL; listed as Homo sapiens) [compound 280] |
| +++ (≧50 = +++) | 180 (RLYEEEIRI; listed as Homo sapiens) [compound 180] |
| +++ (≧50 = +++) | 231 (LLDDIFIRL; listed as Homo sapiens) [compound 231] |
| ++++ (≧75% = ++++) | 269 (GLLDCPIFL; listed as Homo sapiens) [compound 269] |
| +++ (≧50 = +++) | 274 (TLYNPERTITV; listed as Homo sapiens) [compound 274] |
| +++ (≧50 = +++) | 165 (SLLDYEVSI; listed as Homo sapiens) [compound 165] |

| Peptide exchange (MHC class I binding score, peptide exchange yield) | Substance |
| --- | --- |
| +++ (≧50 = +++) | 183 (ALSYILPYL; listed as Homo sapiens) [compound 183] |
| +++ (≧50 = +++) | 136 (LLWDAPAKC; listed as Homo sapiens) [compound 136] |
| +++ (≧50 = +++) | 214 (ALFETLIQL; listed as Homo sapiens) [compound 214] |
| +++ (≧50 = +++) | 262 (LLLEAVWHL; listed as Homo sapiens) [compound 262] |
| +++ (≧50 = +++) | 190 (SLSTELFKV; listed as Homo sapiens) [compound 190] |
| +++ (≧50 = +++) | 175 (SLLDLVQSL; listed as Homo sapiens) [compound 175] |
| +++ (≧50 = +++) | 285 (MLLDTVQKV; listed as Homo sapiens) [compound 285] |
| +++ (≧50 = +++) | 131 (SLYPHFTLL; listed as Homo sapiens) [compound 131] |
| ++ (≧20% = ++) | 198 (ILTNKVVSV; listed as Homo sapiens) [compound 198] |
| +++ (≧50 = +++) | 225 (FLPQPVPLSV; listed as Homo sapiens) [compound 225] |
| ++ (≧20% = ++) | 273 (SLNKQIETV; listed as Homo sapiens) [compound 273] |
| +++ (≧50 = +++) | 210 (GLAGDNIYL; listed as Homo sapiens) [compound 210] |
| ++ (≧20% = ++) | 216 (ALSTVTPRI; listed as Homo sapiens) [compound 216] |
| ++ (≧20% = ++) | 187 (SILKEDPFL; listed as Homo sapiens) [compound 187] |
| +++ (≧50 = +++) | 256 (FLNDIFERI; listed as Homo sapiens) [compound 256] |
| ++ (≧20% = ++) | 155 (TLDSYLKAV; listed as Homo sapiens) [compound 155] |
